Drawing on patent publication US20120039865A1, “IDENTIFICATION OF SORTILIN AS A NEURONAL RECEPTOR FOR THE FRONTOTEMPORAL DEMENTIA PROTEIN, PROGRANULIN” (Yale University, priority 2008, published 2012), this text covers fold-increase in PGRN level in brain of sortilin -/- mice and fold-increase in PGRN level in serum of sortilin -/- mice (immunoblot) for 1 substance.

The assay has as its target endogenous mouse sortilin (Sort1) of mouse brain lysate, mouse cortical neurons and mice in vivo (mouse) (UniProt Q6PHU5). In words: cell-based or functional assay.

endogenous mouse sortilin (Sort1) of mouse brain lysate, mouse cortical neurons and mice in vivo (mouse), sequence (Q6PHU5 74-825 limits assumed): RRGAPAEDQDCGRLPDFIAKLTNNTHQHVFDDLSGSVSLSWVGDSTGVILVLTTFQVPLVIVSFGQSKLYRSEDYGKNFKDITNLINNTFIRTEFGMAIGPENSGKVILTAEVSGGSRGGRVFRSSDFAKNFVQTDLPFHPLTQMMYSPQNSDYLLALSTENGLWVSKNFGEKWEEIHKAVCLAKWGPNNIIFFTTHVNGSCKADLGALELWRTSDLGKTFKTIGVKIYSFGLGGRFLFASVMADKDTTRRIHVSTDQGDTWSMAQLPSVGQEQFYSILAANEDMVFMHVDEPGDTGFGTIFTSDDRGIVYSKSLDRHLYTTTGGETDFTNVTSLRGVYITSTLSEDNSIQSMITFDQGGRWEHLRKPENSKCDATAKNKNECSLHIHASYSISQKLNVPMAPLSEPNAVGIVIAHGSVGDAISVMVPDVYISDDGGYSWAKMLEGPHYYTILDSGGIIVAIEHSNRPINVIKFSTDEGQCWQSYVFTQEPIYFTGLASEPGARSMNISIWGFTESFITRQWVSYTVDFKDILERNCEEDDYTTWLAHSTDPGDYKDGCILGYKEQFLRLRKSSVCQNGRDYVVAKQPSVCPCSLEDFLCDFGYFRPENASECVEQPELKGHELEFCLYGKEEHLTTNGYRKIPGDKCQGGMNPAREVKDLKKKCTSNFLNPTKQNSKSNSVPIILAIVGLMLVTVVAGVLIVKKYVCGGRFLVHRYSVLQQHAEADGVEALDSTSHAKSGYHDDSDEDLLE

Take “endogenous mouse PGRN (serum and brain of mice) (from UniProt P28798 18-589) (ligand)”: the fold-increase in PGRN level in brain of sortilin -/- mice was 3 fold and the fold-increase in PGRN level in serum of sortilin -/- mice (immunoblot) turned out to be 4 fold.
